Test results reported in article PMC7281310, “Pharmacokinetic Analysis of Epithelial/Endothelial Cell Barriers in Microfluidic Bilayer Devices with an Air–Liquid Interface” (Micromachines, 2020).

Assays:
[1] = Permeability of agitated vs un-agitated insulin in Transwells without cells; assay type: in vitro ADME; details: agitated 5 min in jet nebulizer, 20 min diffusion time, fluorescence
Experimental: The permeability values, calculated based on concentration measurements in the Transwell bottom compartments after 20 min diffusion time, are shown in Figure 10. […] It is; therefore, critical to maintain the stability of compounds during aerosol generation process in order to obtain reliable concentration–time plots using microfluidic bilayer devices with an air–liquid interface.

some cell types = details: 30 min exposure; cited from earlier work
[2] = Permeability in Transwells without cells; assay type: in vitro ADME; details: no cells; 12-well Transwell, polyester membrane, 0.4 µm pores, 1.12 cm^2; static, top to bottom chamber; 2 h; endothelial cell media; C0 = 60, 3, 1, 3 µM for 4-dextran, C-dextran, 70-dextran, insulin; fluorescence plate reader; n = 3
Experimental: (§1) Commercially-available 12-well Transwells (Corning, Corning, NY, USA), with polyester membranes, were utilized to assess static compound permeability in the absence of flow-induced shear stress. The area of each Transwell membrane was 1.12 cm^2 with 0.4 µm diameter pores and 0.5% porosity. Epithelial cells were seeded in the Transwell top apical compartment at a density of 2 × 10^6 cells/mL. Once the cell monolayer had reached confluency, the 500 µL culture media in the top compartment was replaced with a solution of endothelial cell media mixed with various fluorescently-labeled compounds at a pre-determined initial concentration. The bottom basolateral compartment was filled with 1500 µL fresh endothelial cell culture media, and the Transwell was placed in an incubator for 2 h. Then, liquid samples of 100 µL from both compartments were aliquoted into a 96-well plate. Fluorescent intensities of the collected samples were measured, using a BioTek Synergy 2 Plate Reader (BioTek, Winooski, VT, USA), and converted to molecular concentrations as reported elsewhere.
(§2) Investigation of molecular transport across Transwell membranes is useful in establishing baseline permeability characteristics with no shear stress. […] The molecular concentration at the Transwell bottom chamber CT was then measured after 2 h. […]

A549 epithelial cells [3] = test: Trypan blue cell viability assay, A549; assay type: cell-based, human; details: insulin at 10 µM, 1 h exposure
Experimental: (§3) In general, higher compound concentration is desired since the emitted light intensity increases with molecular concentration enhancing the signal-to-noise ratio and, thereby, improving the reliability of the measured concentration. However, some compounds could be toxic agents to cell cultures; as the signal intensity increases with increasing compound concentration, cells could be adversely affected resulting in cell death. […] Epithelial and endothelial cells were seeded and cultured in 96-well plates for 48 h. The cell cultures were exposed to the selected compounds at various concentrations for 1 h and then washed using PBS. Next, the wells were immersed in 0.2% Trypan Blue for 10 min, after which the cells were fixed using 4% paraformaldehyde and rinsed with PBS. Using a brightfield microscope, dead cells were counted using uptake of trypan blue as a marker for nonviable cells.

HUVEC endothelial cells = test: Trypan blue cell viability assay, HUVEC; assay type: cell-based, human; details: tested concentration range 10^−3–10^1 µM, 1 h exposure
Experimental: as §3

[4] = Turbidity / fibril formation after agitation in jet nebulizer (fluorescent intensity, visual pellet); assay type: physicochemical
Experimental: In order to generate an aerosol, using a jet nebulizer, a high-pressure air stream is forced through a liquid solution to form a mixture of tiny liquid droplets suspended in air. […] Visual inspection of the upper jet nebulizer platform provides an indirect evidence for insulin fibril formation. The photographs of the nebulizer platform, shown in Figure 8, were taken following 5 min of the solution agitation.
The intensity of the agitated and un-agitated dextran is approximately the same (Ia/Iu ≅ 1), indicating constant transparency with and without agitation, which is consistent with the lack of a dextran pellet on the nebulizer platform. […] The initially lower intensity of the agitated insulin with its low transparency, which is correlated with the pellet formation on the nebulizer platform, can be due to insulin fibril formation.

A549 epithelial cells [5] = test: Permeability in Transwells with A549 cell monolayer; assay type: in vitro ADME, human; details: confluent A549 monolayer in apical chamber; 12-well Transwell, polyester membrane, 0.4 µm pores, 1.12 cm^2; static, top to bottom chamber; 2 h; endothelial cell media; C0 = 60, 3, 1, 3 µM for 4-dextran, C-dextran, 70-dextran, insulin; fluorescence plate reader; n = 3
Experimental: as §1, with “elsewhere. […]” for “elsewhere.”
as §2

[6] = parameters: method as in PMID 21641324, PMID 18646033; details: under conditions similar to the present experiments; cited from earlier work

## Insulin: Fluorescently tagged (FITC) insulin, 5.8 kDa, used at 3 µM as potential inhaled therapeutic compound
[1]
  Permeability of agitated solution compared with un-agitated solution: clearly lower
Some cell types
  Concentration at which some cell types start to exhibit signs of cell death: greater than 1 µM
[2]
  Permeability in Transwells, Pat: 15.8 ×10⁻⁶ cm/s
A549 epithelial cells [3]
  A549 epithelial cell viability: 88%
HUVEC endothelial cells
  Cytotoxicity to HUVEC cells (in words): did not have adverse effect
[4]; after 5 min agitation in a jet nebulizer
  Time to reach steady-state Ia/Iu: ≤ 20 min
[4]; following 5 min of solution agitation
  Pellet (solution turbidity) on nebulizer platform, visual inspection: visible
[4]; following 5 min of solution agitation, visual inspection
  Time for pellet to disappear: within half an hour
A549 epithelial cells [5]
  Permeability in Transwells, Pat: 5 ×10⁻⁶ cm/s
[6]
  Time of fibril dissociation: < 1 h
